Molecular target: NKG2D (human) (UniProt P26718)
Test: cell-based or functional assay

Sequence of UniProt P26718 (P26718 whole entry): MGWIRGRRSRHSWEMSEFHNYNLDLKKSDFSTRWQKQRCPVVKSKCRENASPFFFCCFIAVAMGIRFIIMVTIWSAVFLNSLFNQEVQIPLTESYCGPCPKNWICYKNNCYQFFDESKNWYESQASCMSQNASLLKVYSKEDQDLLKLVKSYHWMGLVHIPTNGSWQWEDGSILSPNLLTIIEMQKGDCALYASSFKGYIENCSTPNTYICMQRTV

Ki67 expression of T cells cultured without IL-2: 80%
B1: anti-NKG2D-anti-CS1 bispecific antibody (bispecific antibody, part only; not given: anti-CS1 scFv and linkers, part only)
chain, part: QVQLVESGGGLVKPGGSLRLSCAASGFTFSSYGMHWVRQAPGKGLEWVAFIRYDGSNKYYADSVKGRFTISRDNSKNTLYLQMNSLRAEDTAVYYCAKDRGLGDGTYFDYWGQGTTVTVSSQSALTQPASVSGSPGQSITISCSGSSSNIGNNAVNWYQQLPGKAPKLLIYYDDLLPSGVSDRFSGSKSGTSAFLAISGLQSEDEADYYCAAWDDSLNGPVFGGGTKLTVLPSGQAGAAASESLFVSNHAYHHHHHH

— patent publication US20220281982A1
